Legend:
c-Src SH2 = assay: SH2 binding enrichment of the phosphorylated peptide, bacterial display (enrichment ratio); higher = better substrate or ligand; peptides without Tyr show the background
SHP2-C SH2 = assay: as above
Grb2 SH2 = Grb2 SH2 (UniProt P62993); assay: as above
MERTK = MERTK (UniProt Q12866); assay: phosphorylation enrichment, bacterial display (enrichment ratio); higher = better substrate or ligand; peptides without Tyr show the background
Fyn = Fyn (UniProt P06241); assay: as above
AncSZ = assay: as above
c-Src = assay: as above
Fes = Fes (UniProt P07332); assay: as above
EPHB2 = EPHB2 (UniProt P29323); assay: as above
Jak2 = Jak2 (UniProt O60674); assay: as above
FGFR3 = FGFR3 (UniProt P22607); assay: as above
c-Abl (mouse) = assay: as above
Fer (mouse) = assay: as above
Hck = Hck (UniProt P08631); assay: as above
EPHB1 = EPHB1 (UniProt P54762); assay: as above
FGFR1 = FGFR1 (UniProt P11362); assay: as above
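Throughout, for SH2 binding enrichment of the phosphorylated peptide, bacterial display: peptide library displayed on the E. coli surface as eCPX fusions, selected cells deep-sequenced, score is each peptide's frequency after selection divided by its frequency in the input.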
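Throughout, for phosphorylation enrichment, bacterial display: 11-residue human phosphosite peptides and single-mutation variants displayed on the E. coli surface, counted by deep sequencing, each peptide's frequency after selection divided by its frequency in the unselected input library; frequency after pTyr selection over input frequency; kinase dosed for 20-30% of maximal phosphorylation in three min.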

EPHB2, sequence (P29323 whole entry, looked up): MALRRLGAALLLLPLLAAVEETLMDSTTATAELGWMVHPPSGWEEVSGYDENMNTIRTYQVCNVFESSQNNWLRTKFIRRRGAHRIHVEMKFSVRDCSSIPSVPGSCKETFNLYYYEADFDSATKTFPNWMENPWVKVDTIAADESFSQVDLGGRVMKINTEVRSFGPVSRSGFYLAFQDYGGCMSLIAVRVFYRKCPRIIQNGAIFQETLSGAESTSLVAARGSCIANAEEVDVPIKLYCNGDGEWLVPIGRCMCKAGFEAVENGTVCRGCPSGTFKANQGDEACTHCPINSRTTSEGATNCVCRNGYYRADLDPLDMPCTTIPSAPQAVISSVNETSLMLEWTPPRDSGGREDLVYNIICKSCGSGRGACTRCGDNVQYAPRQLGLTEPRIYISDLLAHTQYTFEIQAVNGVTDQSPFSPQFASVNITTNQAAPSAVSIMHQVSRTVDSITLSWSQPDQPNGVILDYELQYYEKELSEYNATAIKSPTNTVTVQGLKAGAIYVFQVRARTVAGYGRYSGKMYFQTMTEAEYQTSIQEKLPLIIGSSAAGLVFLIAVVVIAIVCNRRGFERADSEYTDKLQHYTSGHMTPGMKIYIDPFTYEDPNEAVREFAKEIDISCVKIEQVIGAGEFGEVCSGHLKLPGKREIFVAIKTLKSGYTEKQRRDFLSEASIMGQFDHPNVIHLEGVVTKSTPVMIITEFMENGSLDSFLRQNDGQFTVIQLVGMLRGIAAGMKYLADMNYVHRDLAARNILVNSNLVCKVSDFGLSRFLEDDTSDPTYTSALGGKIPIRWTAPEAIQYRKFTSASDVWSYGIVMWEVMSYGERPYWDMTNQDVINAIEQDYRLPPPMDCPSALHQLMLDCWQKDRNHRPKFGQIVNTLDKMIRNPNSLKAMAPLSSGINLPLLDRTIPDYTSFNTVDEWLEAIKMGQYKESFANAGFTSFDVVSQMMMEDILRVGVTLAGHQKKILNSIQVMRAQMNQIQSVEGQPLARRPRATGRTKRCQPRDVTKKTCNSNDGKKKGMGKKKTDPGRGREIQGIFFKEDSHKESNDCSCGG
Fyn, sequence (P06241 whole entry, looked up): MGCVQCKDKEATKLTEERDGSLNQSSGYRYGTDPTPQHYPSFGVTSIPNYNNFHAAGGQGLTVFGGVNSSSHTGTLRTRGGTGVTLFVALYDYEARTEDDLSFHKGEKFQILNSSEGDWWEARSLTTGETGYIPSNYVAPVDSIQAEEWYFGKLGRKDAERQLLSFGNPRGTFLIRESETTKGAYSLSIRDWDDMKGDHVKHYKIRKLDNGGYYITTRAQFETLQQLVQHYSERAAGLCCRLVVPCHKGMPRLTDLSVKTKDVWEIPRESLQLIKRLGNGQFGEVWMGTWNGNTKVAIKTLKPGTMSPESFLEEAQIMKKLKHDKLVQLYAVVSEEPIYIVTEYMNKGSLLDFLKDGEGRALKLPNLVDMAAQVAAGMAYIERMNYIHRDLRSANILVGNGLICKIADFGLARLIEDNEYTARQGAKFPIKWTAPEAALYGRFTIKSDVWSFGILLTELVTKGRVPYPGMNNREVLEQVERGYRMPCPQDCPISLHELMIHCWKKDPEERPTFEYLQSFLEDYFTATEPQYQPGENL
FGFR1, sequence (P11362 whole entry, looked up, the tested form may be a part): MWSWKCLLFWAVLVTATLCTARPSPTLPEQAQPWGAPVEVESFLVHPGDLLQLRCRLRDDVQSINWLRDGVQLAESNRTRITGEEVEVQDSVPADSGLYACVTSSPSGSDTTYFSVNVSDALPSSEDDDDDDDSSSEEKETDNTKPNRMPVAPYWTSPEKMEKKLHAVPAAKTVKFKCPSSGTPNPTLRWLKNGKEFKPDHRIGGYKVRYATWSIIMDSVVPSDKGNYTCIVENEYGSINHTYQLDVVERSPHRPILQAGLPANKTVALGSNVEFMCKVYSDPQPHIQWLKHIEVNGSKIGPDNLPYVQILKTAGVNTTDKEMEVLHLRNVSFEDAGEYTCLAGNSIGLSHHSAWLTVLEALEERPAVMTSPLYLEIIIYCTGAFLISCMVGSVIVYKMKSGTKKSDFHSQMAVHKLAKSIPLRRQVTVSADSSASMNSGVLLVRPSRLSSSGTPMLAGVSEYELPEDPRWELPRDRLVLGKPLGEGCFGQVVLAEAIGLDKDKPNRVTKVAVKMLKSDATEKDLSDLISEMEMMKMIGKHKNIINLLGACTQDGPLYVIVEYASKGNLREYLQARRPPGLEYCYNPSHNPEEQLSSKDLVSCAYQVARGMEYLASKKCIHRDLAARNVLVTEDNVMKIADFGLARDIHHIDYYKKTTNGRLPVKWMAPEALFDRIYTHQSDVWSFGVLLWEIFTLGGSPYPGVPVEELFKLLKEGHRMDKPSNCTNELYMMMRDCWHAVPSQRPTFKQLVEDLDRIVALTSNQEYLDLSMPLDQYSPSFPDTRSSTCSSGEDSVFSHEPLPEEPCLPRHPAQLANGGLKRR
Fes, sequence (P07332 whole entry, looked up): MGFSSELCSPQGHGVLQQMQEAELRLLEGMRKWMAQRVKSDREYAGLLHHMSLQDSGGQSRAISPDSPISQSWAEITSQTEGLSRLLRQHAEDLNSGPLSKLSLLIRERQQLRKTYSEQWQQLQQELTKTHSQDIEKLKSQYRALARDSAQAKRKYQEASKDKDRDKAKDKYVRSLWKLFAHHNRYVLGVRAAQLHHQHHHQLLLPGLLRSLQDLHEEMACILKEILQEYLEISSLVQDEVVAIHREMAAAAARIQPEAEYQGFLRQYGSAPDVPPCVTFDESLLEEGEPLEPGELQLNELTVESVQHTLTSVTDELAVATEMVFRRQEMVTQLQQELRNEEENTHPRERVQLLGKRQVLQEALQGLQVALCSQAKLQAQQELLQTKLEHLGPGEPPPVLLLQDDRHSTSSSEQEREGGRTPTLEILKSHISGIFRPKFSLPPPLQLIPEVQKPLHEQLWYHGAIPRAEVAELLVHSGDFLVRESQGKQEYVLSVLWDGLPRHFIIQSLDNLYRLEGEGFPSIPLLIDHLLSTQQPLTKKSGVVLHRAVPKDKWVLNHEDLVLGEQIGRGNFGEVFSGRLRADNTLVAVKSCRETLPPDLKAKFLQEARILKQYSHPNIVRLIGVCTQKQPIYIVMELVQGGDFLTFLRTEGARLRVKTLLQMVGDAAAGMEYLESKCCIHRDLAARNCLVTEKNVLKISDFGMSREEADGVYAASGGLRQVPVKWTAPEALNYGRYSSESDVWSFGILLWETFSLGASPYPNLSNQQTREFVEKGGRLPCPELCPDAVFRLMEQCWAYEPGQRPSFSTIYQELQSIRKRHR
FGFR3, sequence (P22607 whole entry, looked up): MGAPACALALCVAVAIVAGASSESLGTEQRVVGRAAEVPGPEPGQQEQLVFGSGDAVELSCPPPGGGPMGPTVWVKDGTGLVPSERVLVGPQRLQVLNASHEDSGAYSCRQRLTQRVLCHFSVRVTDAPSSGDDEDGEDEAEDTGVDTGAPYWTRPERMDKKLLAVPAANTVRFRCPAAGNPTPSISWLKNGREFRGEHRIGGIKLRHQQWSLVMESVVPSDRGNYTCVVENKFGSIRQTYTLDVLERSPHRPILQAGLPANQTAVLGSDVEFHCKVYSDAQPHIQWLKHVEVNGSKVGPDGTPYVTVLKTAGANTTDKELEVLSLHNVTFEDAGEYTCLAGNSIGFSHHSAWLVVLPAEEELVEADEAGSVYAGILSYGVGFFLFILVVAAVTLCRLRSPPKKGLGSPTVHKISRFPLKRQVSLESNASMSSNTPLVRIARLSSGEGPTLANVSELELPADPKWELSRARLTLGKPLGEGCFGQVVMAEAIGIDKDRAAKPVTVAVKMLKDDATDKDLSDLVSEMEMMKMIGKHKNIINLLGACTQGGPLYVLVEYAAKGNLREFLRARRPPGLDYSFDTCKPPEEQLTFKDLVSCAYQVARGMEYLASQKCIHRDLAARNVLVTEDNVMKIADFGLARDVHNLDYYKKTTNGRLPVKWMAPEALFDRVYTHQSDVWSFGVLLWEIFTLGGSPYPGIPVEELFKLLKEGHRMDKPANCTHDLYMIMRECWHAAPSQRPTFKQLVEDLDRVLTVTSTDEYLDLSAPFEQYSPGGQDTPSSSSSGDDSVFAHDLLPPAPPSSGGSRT
EPHB1, sequence (P54762 whole entry, looked up): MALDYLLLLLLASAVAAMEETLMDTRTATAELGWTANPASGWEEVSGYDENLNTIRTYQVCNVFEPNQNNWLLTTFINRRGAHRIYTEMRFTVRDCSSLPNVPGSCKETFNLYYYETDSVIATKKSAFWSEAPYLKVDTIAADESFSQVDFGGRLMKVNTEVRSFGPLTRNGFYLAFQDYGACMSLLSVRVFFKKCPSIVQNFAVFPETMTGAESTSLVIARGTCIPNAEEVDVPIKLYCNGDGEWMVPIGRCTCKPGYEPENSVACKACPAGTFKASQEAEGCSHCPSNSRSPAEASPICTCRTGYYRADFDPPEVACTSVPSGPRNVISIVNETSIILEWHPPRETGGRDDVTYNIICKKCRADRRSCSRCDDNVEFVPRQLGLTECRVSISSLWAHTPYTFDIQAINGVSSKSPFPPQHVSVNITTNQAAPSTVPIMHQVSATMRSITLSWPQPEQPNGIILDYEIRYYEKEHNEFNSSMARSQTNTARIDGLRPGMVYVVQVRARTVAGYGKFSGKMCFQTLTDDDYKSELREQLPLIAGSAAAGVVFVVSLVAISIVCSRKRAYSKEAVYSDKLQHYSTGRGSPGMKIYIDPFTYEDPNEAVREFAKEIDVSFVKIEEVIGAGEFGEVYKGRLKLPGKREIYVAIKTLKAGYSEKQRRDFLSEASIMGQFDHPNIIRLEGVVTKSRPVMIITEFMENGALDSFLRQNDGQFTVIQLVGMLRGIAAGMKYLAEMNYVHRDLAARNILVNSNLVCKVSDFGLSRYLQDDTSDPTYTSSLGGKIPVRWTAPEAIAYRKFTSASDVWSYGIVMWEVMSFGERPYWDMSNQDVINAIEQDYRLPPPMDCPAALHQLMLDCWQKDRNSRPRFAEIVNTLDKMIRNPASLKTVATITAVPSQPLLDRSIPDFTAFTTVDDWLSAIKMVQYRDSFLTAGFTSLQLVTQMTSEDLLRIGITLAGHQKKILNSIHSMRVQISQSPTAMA

Sequence	SH2 binding enrichment (c-Src SH2)	SH2 binding enrichment (SHP2-C SH2)	SH2 binding enrichment (Grb2 SH2)	phosphorylation enrichment (MERTK)	phosphorylation enrichment (Fyn)	phosphorylation enrichment (AncSZ)	phosphorylation enrichment (c-Src)	phosphorylation enrichment (Fes)	phosphorylation enrichment (EPHB2)	phosphorylation enrichment (Jak2)	phosphorylation enrichment (FGFR3)	phosphorylation enrichment (c-Abl (mouse))	phosphorylation enrichment (Fer (mouse))	phosphorylation enrichment (Hck)	phosphorylation enrichment (EPHB1)	phosphorylation enrichment (FGFR1)
GHEFIYVDPMQ [PDGFRA_Y574_YF]	0.563	0.661	0.821	2.36	2.2	1.85	2.6	0.986	6.63	0.818	7.52	6.67	1.91	2.96	5.23	10.8
GHRPVYSEDEQ [CHST6_Y362_Y358H]	0.641	0.736	1.1	0.437	0.474	1.05	0.48	1.13	0.523	0.894	0.707	0.757	0.501	0.564	0.429	0.495
GISDEYHMIRH [GCDH_Y398_V400M]	0.781	0.587	0.931	0.349	0.58	1.07	0.735	0.714	0.522	0.575	4.43	0.491	0.402	0.891	0.446	7.6
GKFRMYVAVWT [F13A1_Y161]	0.5	0.619	0.997	0.357	0.377	1.14	0.342	1.1	0.604	1.13	0.665	0.762	0.501	0.365	0.508	0.479
GLSDLYVKIHL [SYT2_Y309_P308L]	0.567	0.599	1.04	0.428	0.623	1.26	0.495	1.45	0.615	1.38	0.804	0.94	0.705	0.613	0.826	0.452
GNLQENLTRHV [TGFBR2_Y336_Y336N]	0.474	0.601	0.698	0.368	0.427	0.461	0.337	0.558	0.422	0.447	0.418	0.432	0.366	0.374	0.478	0.358
GREEFYSTHPH [LRRK2_Y1402]	0.376	0.607	0.845	1.52	0.42	0.576	0.421	0.575	0.482	0.483	0.465	0.418	0.528	0.679	0.385	0.505
GRQGIYKENER [GPR143_Y231_T232K]	0.443	0.427	0.735	0.738	0.371	0.627	0.436	0.722	0.375	0.515	0.428	0.555	0.407	0.484	0.322	0.441
GRRGQYVMLSE [TTC7A_Y396]	2.01	0.673	0.84	0.673	0.546	0.692	0.549	0.586	0.494	0.573	0.532	0.565	0.45	0.512	0.431	0.506
GRSTFYWPRPR [GAGE12J_Y10_YF]	0.563	0.64	0.844	0.538	0.474	0.831	0.501	0.602	0.472	0.644	0.47	0.573	0.463	0.713	0.446	0.48
GSIQQYIYKQE [PRG4_Y1271]	0.294	0.837	0.919	0.433	0.522	0.651	0.752	0.644	0.567	0.811	0.539	0.486	0.398	0.439	0.425	0.507
GSTLSYGRDGR [MATR3_Y158_P154S]	0.465	0.642	0.793	0.374	0.353	0.545	0.382	0.516	0.343	0.452	0.466	0.392	0.374	0.376	0.339	0.389
GTATAYLCGVK [ALPL_Y117]	0.432	0.695	0.763	0.352	0.472	0.756	0.427	1.07	0.507	0.89	0.595	0.667	0.463	0.501	0.512	0.485
GVRLFYRVMES [RB1_Y454_YF]	0.429	0.684	0.624	0.381	0.448	1.29	0.39	1.42	0.576	1.38	0.815	0.83	0.517	0.541	0.655	0.488
GVRTIYTIDGS [DCLK2_Y124]	0.521	0.941	0.968	0.553	1.38	0.803	1.6	0.846	0.507	0.69	0.506	0.5	0.52	0.697	0.563	0.581
HAVEDYQAIVD [CCT7_Y263_T259A]	0.696	0.768	1.09	3.12	0.792	1.54	0.942	1.47	1.03	1.25	1.05	1.19	0.653	0.714	0.73	0.864
HDEPTYARSSK [PEAK1_Y616]	0.576	0.819	0.92	0.679	0.519	0.785	1.29	1.03	0.321	1.01	0.575	0.864	0.57	0.918	0.478	0.389
HEKKAYSFCGT [RPS6KA3_Y226]	0.808	0.729	0.999	0.725	1.09	1.73	0.65	1.8	1.18	0.695	1.68	0.725	0.989	1.49	0.703	1.51

Now from value to sequence, other results behind:

SH2 binding enrichment (c-Src SH2)	SH2 binding enrichment (SHP2-C SH2)	SH2 binding enrichment (Grb2 SH2)	Sequence	phosphorylation enrichment (MERTK)	phosphorylation enrichment (Fyn)	phosphorylation enrichment (AncSZ)	phosphorylation enrichment (c-Src)	phosphorylation enrichment (Fes)	phosphorylation enrichment (EPHB2)	phosphorylation enrichment (Jak2)	phosphorylation enrichment (FGFR3)	phosphorylation enrichment (c-Abl (mouse))	phosphorylation enrichment (Fer (mouse))	phosphorylation enrichment (Hck)	phosphorylation enrichment (EPHB1)	phosphorylation enrichment (FGFR1)
0.453	0.571	0.736	GGRKGYGGFSR [RECQL5_Y478_D480G]	0.512	0.513	0.551	0.487	0.491	0.396	0.51	0.452	0.506	0.36	0.42	0.393	0.391
0.916	1.13	0.993	GHLFAYNWISI [BEST1_Y227_D228N_YF]	0.548	0.488	0.962	0.392	1.06	0.469	0.978	1.21	0.58	4.77	0.444	0.51	1.34
0.771	0.676	0.799	GHLYACDWISI [BEST1_Y227_Y227C]	4.89	1.06	1.21	1.34	1.43	0.929	1.18	1.06	1.05	0.677	0.846	1.3	0.902
4.13	0.695	0.968	GIFSGYDDAWD [POLR1C_Y36_N32I_YF]	0.481	0.551	1.1	0.514	1.14	0.651	1.07	0.7	0.746	0.477	0.547	0.51	0.531
0.494	1.42	0.92	GINDDYGQLKN [NBN_Y679]	0.296	0.528	0.841	0.613	1.1	0.514	0.829	0.61	0.499	0.474	0.874	0.364	0.499
0.498	0.457	0.847	GIPIQYPIISE [NOG_Y222_W217G]	0.447	0.541	0.868	0.409	1.11	0.587	1.02	0.685	0.888	0.467	0.446	0.55	0.627
0.568	0.521	0.789	GISDEYHVIWH [GCDH_Y398_R402W]	0.391	0.837	2.07	1.09	1.17	1.1	1.34	4.61	0.818	0.649	1	1.46	7.06
0.535	0.825	1.03	GKFHMYVAVWT [F13A1_Y161_R159H]	0.351	0.407	1.18	0.368	1.1	0.479	1.06	0.669	1.45	0.445	0.498	0.491	0.516
0.572	0.495	0.784	GLGVTYEQALA [MAP2_Y996]	0.372	0.464	0.712	0.503	0.686	0.471	0.724	0.477	1.18	0.423	0.439	0.48	0.437
0.435	0.751	0.663	GNEEAYGSSHI [FAM171B_Y522_R524S]	0.526	0.521	0.763	0.549	0.817	0.525	0.718	0.518	0.866	0.4	0.489	0.465	0.48
0.589	1.6	1.04	GQKTLYSFFSP [UNG_Y8]	10.3	4.16	0.984	4.32	1.2	2.12	0.908	1.42	2.05	8.62	4.06	2.58	1.18
0.573	0.719	0.814	GSETPYVDRTP [ESS2_Y335]	0.466	0.451	0.711	0.453	0.821	0.477	0.813	0.553	0.603	0.409	0.429	0.408	0.488
0.593	0.695	0.742	GTSLIYWILFT [G6PC3_Y214_T216I]	1.46	2.42	1.18	2.67	1.56	0.749	1.59	1.38	1.43	0.55	1.74	1	1.17
1.06	1.27	0.944	GVYSRYFTTYD [CLCA1_Y661]	3.71	4.58	1.35	4.77	1	1.25	1.07	0.729	0.955	0.573	3.33	1.12	0.571
0.366	0.495	0.812	HEEKVYLSRGD [CRACR2A_Y141]	0.611	0.995	0.884	1.08	1.05	0.526	0.784	1.17	0.826	0.569	0.885	0.541	0.672

— the supplement of paper PMC10065799, “High-throughput profiling of sequence recognition by tyrosine kinases and SH2 domains using bacterial peptide display” (eLife, 2023)
